Results on one molecule are retold here after patent publication US20250019426A1 (UCT BIOSCIENCE, published 2025).

Test [1] concerns the target T1, recombinant GRP78 protein (human, UniProt P11021 19-650, limits assumed).
T1 construct: also called HSPA5/GRP78 (Active Protein) Human Protein (ORIGENE, Cat. No. AR03021PU-L); glucose-regulated protein 78
Briefly: Biacore SPR, multi-cycle kinetics, GRP78 amine-coupled to the chip, G2D03 as analyte 0.625-10 nM, 1:1 fit. The text has this:
(§1) This ligand has the optimum pH 4.0 condition for direct immobilization by pH scouting test. With amine coupling method, carboxyl groups on the surface of the sensor chip surface are first activated with a mixture of EDC and NHS to give reactive succinimide esters. GRP78 is then passed over the surface and the esters react with primary amine groups to link the ligand covalently to the dextran matrix. The target level of the GRP78 protein is about 300 RU.
(§2) For the multi-cycle kinetics analysis, the chip surface level is 291.2 RU and the analyte concentration is used for the moderate Rₘₐₓ, which is running through the conditions in the assay. The concentrations of the anti-GRP78 antibody G2D03 are: 0.625 nM, 1.25 nM, 2.5 nM, 5 nM and 10 nM. Set the flow rate at 30 μL/min. Association time is 120 seconds. Dissociation time is 360 seconds. Regeneration buffer is performed using 10 mM glycine-HCl pH 1.7. […] The binding affinity of the anti-GRP78 antibody G2D03 is better than the conventional anti-GRP78 antibody C38.

Test [2] has as its target T1, recombinant GRP78 protein. Briefly: Biacore SPR, multi-cycle kinetics, GRP78 amine-coupled to the chip, G2D03 as analyte 0.625-10 nM, 1:1 fit, kd/ka.
Excerpt: as §1, §2
Background: SPR reads the build-up and loss of mass on a sensor chip optically.

T1 sequence (P11021 19-650 limits assumed): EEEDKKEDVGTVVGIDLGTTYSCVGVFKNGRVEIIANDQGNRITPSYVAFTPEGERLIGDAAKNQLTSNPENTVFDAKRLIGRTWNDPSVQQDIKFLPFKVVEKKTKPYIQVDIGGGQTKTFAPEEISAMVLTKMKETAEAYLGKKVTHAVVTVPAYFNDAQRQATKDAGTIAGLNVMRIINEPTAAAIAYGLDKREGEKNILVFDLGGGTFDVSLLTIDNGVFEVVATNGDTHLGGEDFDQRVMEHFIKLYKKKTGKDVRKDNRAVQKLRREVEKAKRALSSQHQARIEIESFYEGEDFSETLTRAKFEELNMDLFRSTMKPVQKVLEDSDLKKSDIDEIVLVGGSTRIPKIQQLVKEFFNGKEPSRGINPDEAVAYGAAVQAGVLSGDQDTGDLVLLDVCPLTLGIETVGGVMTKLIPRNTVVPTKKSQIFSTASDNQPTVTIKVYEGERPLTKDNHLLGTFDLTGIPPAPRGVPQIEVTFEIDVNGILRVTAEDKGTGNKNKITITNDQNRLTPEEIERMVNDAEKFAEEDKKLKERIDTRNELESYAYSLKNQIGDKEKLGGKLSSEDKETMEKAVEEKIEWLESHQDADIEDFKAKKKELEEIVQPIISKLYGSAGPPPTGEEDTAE

B1: anti-GRP78 antibody G2D03 (antibody, V domains shown)
VH: EVQLVESGGGLVQPGGSLRLSCAASGFTFSQYAMAWVRQAPGKGLEWVSGISPYGSNTRYADSVKGRFTISRDNSKNTLYLQMNSLRAEDTAVYYCARNGGYSYTWFDLWGQGTLVTVSS
VL: DIQMTQSPSSLSASVGDRVTITCRASQSISSDLAWYQQKPGKAPKLLIYWASKLQSGVPSRFSGSGSGTDFTLTISSLQPEDFATYYCMQMYNTPPTFGQGTKVEIKR
notes: Detected with anti-human IgG; also called G2D03 mAb; anti-GRP78 monoclonal antibody (G2D03)
In the case of B1, in test [1], the off-rate constant (koff) is 0.000254 s⁻¹ and the kon is 3.42e+06 M⁻¹ s⁻¹. In addition, in test [2], the dissociation constant Kd turned out to be 0.0744 nM.

The koff is a measure of how fast the partners let go of each other. The term kon denotes a measure of how fast the partners come together. The term Kd denotes a measure of binding affinity in units of concentration.
